The subject of this data set is MS2 coat protein. The experiment in a line: apparent KD of MS2 coat protein; designed switch direction (-1 OFF switch, 1 ON switch): -1; higher = weaker reporter binding. The method in brief:
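Designed RNA switches were transcribed on Illumina chips by stalled E. coli RNA polymerase and titrated with SNAP-549-labelled MS2 coat protein from 0.7 or 1.5 nM, doubling to 3 µM. Step length ran from 0.8–1.5 h at the lowest concentration to 10–20 min at the highest. The apparent KD is the median over clusters for each design, from curve-fitted normalised cluster fluorescence.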

Setting [1] is: input ligand: microRNA oligo, concentration not stated.
Setting [2] is: Eterna round: R95, input ligand: FMN 200 uM.
[3] abbreviates: Eterna round: R95, input ligand: microRNA oligo, concentration not stated.
The mark [4] stands for this setting: Eterna round: R95, input ligand: none.

“AACAUCGUAGGAUAUUCGUGCUCAGACAUGAGGAUCACCCAUGUUUGGUGGGUUGGAGAAGGAGAAGGGCGAUGGA [EX5 #18] (Eterna round: R97, puzzle: Exclusion 5)”: the “apparent KD of MS2 coat protein” value (input ligand: FMN 200 uM) was found to be 67.9 nM and the “apparent KD of MS2 coat protein” value (input ligand: none) was 92.8 nM.
Take “CAGGAACCAGCAGGAUAUGUGCGGCUGCUAACGUGAACCAACAUGAGGAUCACCCAUGUAGGCACGCAGAAGGGCUCAGCCUGC [Orgevebe] (Eterna round: R96, puzzle: Exclusion NG 2)”: the “apparent KD of MS2 coat protein” value was found to be 8.78 nM (input ligand: FMN 200 uM), 10.6 nM under setting [1] and 13.5 nM (input ligand: none).
On to “AGUACUGACACGAAAGUGUUAGUACAAUAAGCUUGUGAAACAUGAGGAUCACCCAUGUCCUCAUAAGCUCGUCUUAU [salish99_TOv2_r3_017] (puzzle: Sensor v3, turn-off variant 2)”, for which the “apparent KD of MS2 coat protein” value reads like this: under setting [2], 16 nM; under setting [3], 1200 nM; under setting [4], 13.8 nM.
Turning to “GUGAUCUAUCAUGUAAUGAACAUGAGGAUCACCCAUGUAGGCAGGUUUUUUGCUCGUCACAUAAUAAGAUAGAUCAC [Antenna 20 - Jieux - Sensor, turn-off variant 1] (Eterna round: R97, puzzle: Sensor, turn-off variant 1)”, the “apparent KD of MS2 coat protein” value (input ligand: FMN 200 uM) amounted to 18.6 nM and the “apparent KD of MS2 coat protein” value (input ligand: none) worked out at 24.2 nM.
For the sequence “GCCCGUGGGCAAGGAUAUCCUACGCUGUUCUGGUUCGUGUCUGUCACAUGAGGAUCACCCAUGUGGGAGAAGGUGCAUUAGGGU [Design 54] (Eterna round: R96, puzzle: Exclusion NG 2)”, the “apparent KD of MS2 coat protein” value (input ligand: FMN 200 uM) was determined as 16.7 nM, the “apparent KD of MS2 coat protein” value under setting [1] is 12.3 nM and the “apparent KD of MS2 coat protein” value (input ligand: none) is 16.8 nM.
For “GUCUUCAUGACAUGAGGAUCACCCAUGUGUUAUUUGUUAACUAAGGAUAUAUUUUUAAUGUUGAGAUAGAAGGUAGUUUCGGUC [JR_ExcNG3_Sub090] (Eterna round: R96, puzzle: Exclusion NG 3)”, the “apparent KD of MS2 coat protein” value was 161 nM (input ligand: FMN 200 uM), 93 nM under setting [1] and 149 nM (input ligand: none).
With “GGGCGGCGGACCGUGGCUUUUUGCUCGUCUUAUGCUUCGACAUGAGGAUCACCCAUGUGGUGGUGGUCCGUUGUGGG [Grok-var2-13 mod JAL] (puzzle: Sensor v3, turn-off variant 2)”, the “apparent KD of MS2 coat protein” value reads like this: under setting [2], 18.4 nM; under setting [3], 15.5 nM; under setting [4], 20.8 nM.
Turning to “GAGUACUGAGGAUAUACAUGAGGAUCACCCAUGUGUUCCAGCUAGGAAACUAGCAAAAGUAGAAGGCAGUACUG [salish99_ex3_r3_084] (Eterna round: R96, puzzle: Exclusion 3)”, the “apparent KD of MS2 coat protein” value worked out at 311 nM (input ligand: FMN 200 uM), 19.3 nM under setting [1] and 23.2 nM (input ligand: none).
In the case of “CAGUACUGAGGAUAUACAUGAGGAUCACCCAUGUGUUCCAGCUAGGAAACUUGCAAAAGUAGAAGGCAGUACUG [salish99_ex3_r3_093x] (puzzle: Exclusion 3)”, the “apparent KD of MS2 coat protein” value under setting [3] came to 11.9 nM.
Take “UGGCUACAUGAGGAUCACCCAUGUCAGGAUAUGCCGUUAAAUUAACAUCAACAUACGGGUAGAAGGGACAGCGU [1st #6] (Eterna round: R97, puzzle: Exclusion 1)”: the “apparent KD of MS2 coat protein” value is, setting by setting: (input ligand: FMN 200 uM) 43.5 nM; (input ligand: none) 41.7 nM.
Take “UUAAAGUCAGGAUAUACAUGAGGAUCACCCAUGUAAAAUUUUAAUUUAAUUUUAAGGUGUAGAAGGGACAAUUU [Ex3 #2] (Eterna round: R97, puzzle: Exclusion 3)”: the “apparent KD of MS2 coat protein” value (input ligand: FMN 200 uM) came out at 29.8 nM and the “apparent KD of MS2 coat protein” value (input ligand: none) is 31.1 nM.
On to “UUGUAGUCAGGAUAUACAUGAGGAUCACCCAUGUAAAAUUUUAAUUUAAUUUGAAGGUGUAGAAGGGACCAGUU [Ex3 #24] (Eterna round: R97, puzzle: Exclusion 3)”, for which the “apparent KD of MS2 coat protein” value amounted to 36.5 nM (input ligand: FMN 200 uM) and 43.4 nM (input ligand: none).
Regarding “AAGAAACAUGAGGAUCACCCAUGUGAGGAUAUGAGCAAGAAAAGAAAAGAAAGAAGAUUCAGAAGGCACAAAGG [salish99-ex1_r3_059] (puzzle: Exclusion 1)”, the “apparent KD of MS2 coat protein” value under setting [2] came out at 61.6 nM, the “apparent KD of MS2 coat protein” value under setting [3] is 39.4 nM and the “apparent KD of MS2 coat protein” value under setting [4] was determined as 59.3 nM.
Turning to “UAACUUAUUGUAAGGAUAUCGGUCCGAAAGGACAACGAGAAGGUACAUGAGGAUCACCCAUGUGAAAUAAGAAU [Mod of Zala 21 - Jieux - Brourd's Mod of Exclusion 4] (Eterna round: R97, puzzle: Brourd's mod of Exclusion 4)”, the “apparent KD of MS2 coat protein” value reads like this: (input ligand: FMN 200 uM) 261 nM; (input ligand: none) 29.4 nM.
The matching figures for “CUGUACUGAGGAUAUACAUGAGGAUCACCCAUGUGAUGUAGUGCACGCGUACGUGUACGUAGAAGGCAGUACAG [Mat - Exclusion 3 - Eli Mod - D41] (Eterna round: R97, puzzle: Exclusion 3)”: 54 nM and 20.3 nM.
In the case of “UUAUACGGUGAGGAUAUCUUCACUAAAGUGUGAAGAGAAGGCGCUACAUGAGGAUCACCCAUGUCUAUGGGCAG [Ex-6 Malc#17] (Eterna round: R96, puzzle: Exclusion 6)”, the “apparent KD of MS2 coat protein” value under setting [1] stood at 331 nM.
On to “GCUUUUCUUUUCCUUUCUUACAUGAGGAUCACCCAUGUUUCUUGUCGUGCUCGCGUUGUUCGUCUGUCUGUCUGUUG [salish99_TOv1_r3_081] (puzzle: Sensor v3, turn-off variant 1)”, for which the “apparent KD of MS2 coat protein” value turned out to be 37.4 nM under setting [2], 35.5 nM under setting [3] and 47.6 nM under setting [4].
Take “CUGUGCACGCUGCGAUCCUACAUGAGGAUCACCCAUGUGGUCUGGUGGCGUGGGUCACCGGACUUGGCUCGUCUUGU [salish99_S_TOV1_R5_079] (Eterna round: R97, puzzle: Sensor, turn-off variant 1)”: the “apparent KD of MS2 coat protein” value worked out at 79 nM (input ligand: FMN 200 uM) and 90.7 nM (input ligand: none).
For the sequence “ACAUGUAAUGUAGGAUAUUUUACACAUGAGGAUCACCCAUGUGACCAGAGGCUUUACUAUGAGUAAAAGAAGGGUAUGUACAUG [Ex NG2 #60] (Eterna round: R96, puzzle: Exclusion NG 2)”, the “apparent KD of MS2 coat protein” value runs as follows: (input ligand: FMN 200 uM) 69.6 nM; under setting [1], 33.5 nM; (input ligand: none) 54.2 nM.
“UAUUCACAUGAGGAUCACCCAUGUCAGGAUAUAGUCGAUAUAUGGAAACAUAUAUCGACUAGAAGGGACUAGCG [Jieuxxlusion 12 - Jieux - Exclusion 1] (Eterna round: R97, puzzle: Exclusion 1)”: the “apparent KD of MS2 coat protein” value runs as follows: (input ligand: FMN 200 uM) 64.5 nM; (input ligand: none) 47.4 nM.
For the sequence “GGUCUGCGAGGAUAUACAUGAGGAUCACCCAUGUGCGAGAAACUAGUGAGGUCGGUUGGUAGAAGGCGCGGACG [Mat - Exclusion 3 - Mod of JL D89] (puzzle: Exclusion 3)”, the “apparent KD of MS2 coat protein” value runs as follows: under setting [2], 13.9 nM; under setting [3], 14 nM; under setting [4], 32.8 nM.
Turning to “AACGUGCAGCUUUGCUGUACGCGUACAUGAGGAUCACCCAUGUAGGAUAUGGUACGCAAAGCGUGCUAGAAGGAUAUGGAGAAA [Mat - Exclusion NG 3 - Mod of JL - D82] (Eterna round: R96, puzzle: Exclusion NG 3)”, the “apparent KD of MS2 coat protein” value was found to be 14.7 nM (input ligand: FMN 200 uM), 11.5 nM under setting [1] and 16.2 nM (input ligand: none).
As to “CAUGAUUGGCGAGGAUAUUGAUCUAGUUGGCGACGAGAAGGCGCCUGUCACAUGAGGAUCACCCAUGUGAGUCUGGUGGAUGAG [Ex NG1 #87] (Eterna round: R96, puzzle: Exclusion NG 1)”, the “apparent KD of MS2 coat protein” value by setting is: (input ligand: FMN 200 uM) 21.4 nM; under setting [1], 16.5 nM; (input ligand: none) 20.4 nM.
The matching figures for “AGUCGGAAGACAAAAGGAAACAUGAGGAUCACCCAUGUAAAGGGUGAAAACAAGCCACCCGCUCGUCUUAAAGAAAA [Mat - Sensor v2- JL mod - D44] (Eterna round: R96, puzzle: Sensor v2, turn-off variant)”: 40.7 nM, 144 nM and 46.1 nM.
For “AAACAACAUGAGGAUCACCCAUGUAAGGAUAUGCGAGUUGGGUCAACGAAGGUUGAAGGCAGAAGGUAUAGGGU [Erxevees] (puzzle: Exclusion 1)”, the “apparent KD of MS2 coat protein” value under setting [3] is 49.3 nM.
As for “CAUGAUUGGCGAGGAUAUUGACCUAGUUAGCGACGAGAAGGCGCCUGUCACAUGAGGAUCACCCAUGUGAAUCUGGUGAAAGAG [Ex NG1 #92] (Eterna round: R96, puzzle: Exclusion NG 1)”, the “apparent KD of MS2 coat protein” value came to 21.6 nM (input ligand: FMN 200 uM), 13.3 nM under setting [1] and 18.3 nM (input ligand: none).
With “AGCUAGUCAGGAUAUUCUAUUAAUUACAUGAGGAUCACCCAUGUGAAUGGACGAGGGUGUGAAGAAGGGACUAGCG [Omei Ex5 A17] (Eterna round: R97, puzzle: Exclusion 5)”, the “apparent KD of MS2 coat protein” value is 94.4 nM (input ligand: FMN 200 uM) and 226 nM (input ligand: none).
For “CCUAUGUUAGGAUAUCGGCAUCCCGGGCAGGUAGCCAGGACCGAGAAGGGACAUGAGGAUCACCCAUGUCAAAU [Eternabot (Original) Solution 4] (Eterna round: R97, puzzle: Exclusion 4)”, the “apparent KD of MS2 coat protein” value reads like this: (input ligand: FMN 200 uM) 15.9 nM; (input ligand: none) 19.1 nM.
“AGUGCGUAUGUGAGGAUAUGCUGGUCCUUGGAUCGGCAGAAGGCACAUGAGGAUCACCCAUGUGGUGUCGUACU [salish99_Bmod_ex4_084] (puzzle: Brourd's mod of Exclusion 4)”: the “apparent KD of MS2 coat protein” value under setting [3] turned out to be 280 nM.
On to “GGAUCGAAUGUGAGGAUAUGCUGGUCCUUGGAUCAGCAGAAGGCACAUGAGGAUCACCCAUGUGGUUCCGAUCC (Eterna round: R97, puzzle: Brourd's mod of Exclusion 4)”, for which the “apparent KD of MS2 coat protein” value reads like this: (input ligand: FMN 200 uM) 161 nM; (input ligand: none) 876 nM.

For the origin of these results see the supplement of paper PMC9170038.
